Source: patent publication US20090062199A1, “Nogo Receptor Polypeptides and Polypeptide Fragments and Uses Thereof” (Biogen Idec MA Inc., priority 2005, published 2009)

How the values were obtained:
[1] = molecular target: T1, TAJ (UniProt Q9NS68 30-170, limits assumed); test: ELISA; reference is NgR1(310)
T1 construct: also called TROY
T1 sequence (looked up): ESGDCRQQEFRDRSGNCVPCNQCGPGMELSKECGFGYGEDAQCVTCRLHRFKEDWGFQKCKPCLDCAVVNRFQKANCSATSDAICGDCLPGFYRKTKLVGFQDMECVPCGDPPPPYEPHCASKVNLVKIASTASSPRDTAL

[2] = molecular target: T2, LINGO-1 (Homo sapiens, UniProt Q96FE5); test: ELISA binding of FL-NgR1 to LINGO-1; conditions: compared with truncated versions containing the LRR region alone
T2 sequence (Q96FE5 42-620): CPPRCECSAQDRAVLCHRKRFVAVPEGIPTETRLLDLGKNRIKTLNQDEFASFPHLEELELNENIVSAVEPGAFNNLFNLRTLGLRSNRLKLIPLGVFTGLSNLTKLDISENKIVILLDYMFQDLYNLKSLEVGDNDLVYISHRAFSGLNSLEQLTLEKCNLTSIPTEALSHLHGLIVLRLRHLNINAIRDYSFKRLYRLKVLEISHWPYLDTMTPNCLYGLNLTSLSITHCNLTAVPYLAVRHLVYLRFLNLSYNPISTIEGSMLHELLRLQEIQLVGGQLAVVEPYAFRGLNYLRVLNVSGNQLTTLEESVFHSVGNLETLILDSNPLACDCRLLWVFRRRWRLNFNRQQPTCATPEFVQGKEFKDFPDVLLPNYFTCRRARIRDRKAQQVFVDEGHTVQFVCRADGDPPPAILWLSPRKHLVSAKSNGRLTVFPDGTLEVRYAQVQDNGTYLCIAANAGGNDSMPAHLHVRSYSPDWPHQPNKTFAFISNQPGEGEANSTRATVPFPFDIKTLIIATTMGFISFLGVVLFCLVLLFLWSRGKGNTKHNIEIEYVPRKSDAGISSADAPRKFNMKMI
Source text: (§1) On size exclusion chromatography (SEC), the protein eluted as a single peak with a mass of about 80 kDa (FIG. 2B). […] See, for e.g., Shao, et al., (2005), Neuron 45, 353-359. A 10-fold higher affinity for Taj was seen using FL-NgR1 compared with the truncated versiox NgR1 (310) containing just the LRR region as described in Id.

[3] = molecular target: T3, Nogo-66 (Homo sapiens, UniProt Q9NQC3); test: ELISA binding of FL-NgR1 to Nogo-66; conditions: compared with truncated versions containing the LRR region alone
T3 construct: Nogo-66 is a 66 amino acid peptide from NogoA
T3 sequence (Q9NQC3 1055-1120 limits assumed): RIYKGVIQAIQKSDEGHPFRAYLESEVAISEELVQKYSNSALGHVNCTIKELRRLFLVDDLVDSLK

[4] = test system: AP-Lingo-1; test: Competition ELISA, anti-NgR1 antibody blocking binding of AP-Lingo-1 to FL-NgR1; conditions: anti-NgR1 antibody used to block binding; FIG. 2C
Source text: as §1

[5] = test system: AP-OMgp; test: Competition ELISA, anti-NgR1 antibody blocking binding of AP-OMgp to FL-NgR1; conditions: anti-NgR1 antibody used to block binding; FIG. 2C
Source text: as §1

[6] = molecular target: T4, p75 (Homo sapiens, UniProt P08138); test: ELISA binding of FL-NgR1 to p75; conditions: compared with truncated versions containing the LRR region alone
T4 sequence (P08138 29-427): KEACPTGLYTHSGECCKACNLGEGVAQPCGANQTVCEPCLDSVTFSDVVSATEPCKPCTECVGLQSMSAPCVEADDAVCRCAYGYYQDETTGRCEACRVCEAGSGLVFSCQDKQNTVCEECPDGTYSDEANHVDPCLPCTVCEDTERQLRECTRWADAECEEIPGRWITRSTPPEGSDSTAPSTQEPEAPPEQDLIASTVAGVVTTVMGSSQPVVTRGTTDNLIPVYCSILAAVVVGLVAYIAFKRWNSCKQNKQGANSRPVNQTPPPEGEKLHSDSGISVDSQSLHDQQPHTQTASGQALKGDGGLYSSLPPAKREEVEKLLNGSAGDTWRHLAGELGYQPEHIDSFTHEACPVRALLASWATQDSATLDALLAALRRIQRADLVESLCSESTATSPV

[7] = molecular target: T5, OMgp (Homo sapiens, UniProt P23515); test: ELISA binding of FL-NgR1 to OMgp; conditions: compared with truncated versions containing the LRR region alone
T5 sequence (P23515 25-417): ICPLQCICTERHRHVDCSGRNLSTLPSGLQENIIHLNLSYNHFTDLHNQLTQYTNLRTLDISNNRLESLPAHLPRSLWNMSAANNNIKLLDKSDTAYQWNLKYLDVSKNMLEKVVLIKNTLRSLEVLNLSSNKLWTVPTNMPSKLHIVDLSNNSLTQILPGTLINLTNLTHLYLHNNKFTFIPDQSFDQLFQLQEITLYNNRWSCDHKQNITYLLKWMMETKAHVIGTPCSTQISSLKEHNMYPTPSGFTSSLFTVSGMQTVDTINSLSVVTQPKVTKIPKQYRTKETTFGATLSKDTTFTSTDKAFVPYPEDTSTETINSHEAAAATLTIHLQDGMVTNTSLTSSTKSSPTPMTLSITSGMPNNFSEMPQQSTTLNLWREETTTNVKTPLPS

[8] = molecular target: T6, TAJ (Homo sapiens, UniProt Q9NS68); test: ELISA binding of FL-NgR1 to TAJ; conditions: compared with truncated versions containing the LRR region alone
T6 sequence (Q9NS68 30-423): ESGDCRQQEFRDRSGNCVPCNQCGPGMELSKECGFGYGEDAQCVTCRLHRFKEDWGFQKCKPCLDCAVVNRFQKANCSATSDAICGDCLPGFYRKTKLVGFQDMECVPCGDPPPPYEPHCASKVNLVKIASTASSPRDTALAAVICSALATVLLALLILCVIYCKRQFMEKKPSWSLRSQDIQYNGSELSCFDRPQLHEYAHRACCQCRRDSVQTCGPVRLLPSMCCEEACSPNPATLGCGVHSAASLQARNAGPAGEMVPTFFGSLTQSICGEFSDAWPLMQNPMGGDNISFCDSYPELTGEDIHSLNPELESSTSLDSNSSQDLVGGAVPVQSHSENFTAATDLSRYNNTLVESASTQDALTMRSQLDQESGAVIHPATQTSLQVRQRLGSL
Source text: as §1

B1: Human NgR1, excluding the GPI domain (FL-NgR1, residues 27-438) with a flag tag at its N-terminus (receptor)
chain: CPGACVCYNEPKVTTSCPQQGLQAVPVGIPAASQRIFLHGNRISHVPAASFRACRNLTILWLHSNVLARIDAAAFTGLALLEQLDLSDNAQLRSVDPATFHGLGRLHTLHLDRCGLQELGPGLFRGLAALQYLYLQDNALQALPDDTFRDLGNLTHLFLHGNRISSVPERAFRGLHSLDRLLLHQNRVAHVHPHAFRDLGRLMTLYLFANNLSALPTEALAPLRALQYLRLNDNPWVCDCRARPLWAWLQKFRGSSSEVPCSLPQRLAGRDLKRLAANDLQGCAVATGPYHPIWTGRATDEEPLGLPKCCQPDAADKASVLEPGRPASAGNALKGRVPPGDSPPGNGSGPRHINDSPFGTLPGSAEPPLTAVRPEGSEPPGFPTSGPRRRPGCSRKNRTRSHCRLGQAGSGG
notes: Soluble protein expressed in CHO cells; also called human FL-NgR1; NgRI; not shown: N-terminal flag tag
[1]
  fold higher affinity compared with NgR1 (310): 10 fold

B2: FL-NgR1: Human NgR1 excluding the GPI domain, residues 27-438 (SEQ ID NO:22), N-terminal flag tag, expressed in CHO cells (protein)
chain: B1 chain
modifications: N-terminal FLAG tag; Human NgR-1
[2]
  binding in an ELISA assay to LINGO-1: as well as or better than truncated versions containing the LRR region alone
[3]
  binding in an ELISA assay to Nogo-66: as well as or better than truncated versions containing the LRR region alone
[4]
  binding of AP-Lingo-1 in competition ELISA: verified the activities of FL-NgR1
[5]
  binding of AP-OMgp in competition ELISA: verified the activities of FL-NgR1
[6]
  binding in an ELISA assay to p75: as well as or better than truncated versions containing the LRR region alone
[7]
  binding in an ELISA assay to OMgp: as well as or better than truncated versions containing the LRR region alone
[8]
  binding in an ELISA assay to TAJ: as well as or better than truncated versions containing the LRR region alone
